Experimental data as given in article PMC8111768 (Immunity, 2021).

B1: recombinant murine FcγRIII (receptor)
chain: ALPKAVVKLDPPWIQVLKEDMVTLMCEGTHNPGNSSTQWFHNGRSIRSQVQASYTFKATVNDSGEYRCQMEQTRLSDPVDLGVISDWLLLQTPQRVFLEGETITLRCHSWRNKLLNRISFFHNEKSVRYHHYKSNFSIPKANHSHSGDYYCKGSLGSTQHQSKPVTITVQDPATTSSISLVWYHT
modifications: soluble ectodomain by convention (UniProt topology); tag not stated
B2: recombinant murine FcγRIV (receptor)
chain: GLQKAVVNLDPKWVRVLEEDSVTLRCQGTFSPEDNSIKWFHNESLIPHQDANYVIQSARVKDSGMYRCQTALSTISDPVQLEVHMGWLLLQTTKWLFQEGDPIHLRCHSWQNRPVRKVTYLQNGKGKKYFHENSELLIPKATHNDSGSYFCRGLIGHNNKSSASFRISLGDPGSPSMFPPWHQ
modifications: soluble ectodomain by convention (UniProt topology); tag not stated
B3: recombinant murine FcγRIIb (receptor)
chain: THDLPKAVVKLEPPWIQVLKEDTVTLTCEGTHNPGNSSTQWFHNGRSIRSQVQASYTFKATVNDSGEYRCQMEQTRLSDPVDLGVISDWLLLQTPQLVFLEGETITLRCHSWRNKLLNRISFFHNEKSVRYHHYSSNFSIPKANHSHSGDYYCKGSLGRTLHQSKPVTITVQGPKSSRSLP
modifications: soluble ectodomain by convention (UniProt topology); tag not stated

Assays:
Assay in all cases: BLI
[1] = molecular target: VIC16 REFORMab SDIEALGA (G236A/S239D/A330L/I332E) (mouse | human)
[2] = molecular target: VIC16 REFORMab KWES (printed K236W/E333S) (mouse | human)
[3] = molecular target: VIC16 REFORMab EFTEA (G236A/S267E/H268F/S324T/I332E) (mouse | human)
[4] = molecular target: VIC16 REFORMab LALA (L234A/L235A) (mouse | human)

Binder	Kd [1] [nM]	Kd [2] [nM]	Kd [3] [nM]	Kd [4] [nM]
B1	10	20	1100	820000
B2	1	160	120	
B3	130	46000	490	
